Experiment [1] has as its target T1, human FcγRIIb receptor protein (R&D Systems) (human, UniProt P31994 46-217).
T1 construct: Bought protein injected over captured antibody in Biacore; also called CD32b
T1 sequence (looked up): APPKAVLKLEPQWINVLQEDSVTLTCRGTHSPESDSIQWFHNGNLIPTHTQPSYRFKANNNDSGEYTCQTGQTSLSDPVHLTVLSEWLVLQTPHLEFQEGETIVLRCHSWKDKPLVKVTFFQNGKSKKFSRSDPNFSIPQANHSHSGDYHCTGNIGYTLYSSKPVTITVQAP
The experiment can be described thus: Biacore SPR, antibody captured on protein A/G chip, FcγR injected, 1:1 Langmuir fit. Here is the method:
Variants were screened for receptor affinity using Biacore™ technology, also referred to as Biacore herein, a surface plasmon resonance (SPR) based technology for studying biomolecular interactions in real time. SPR measurements were performed using a Biacore 3000 instrument (Biacore, Piscataway, N.J.). A protein A/G (Pierce Biotechnology) CM5 biosensor chip (Biacore) was generated using a standard primary amine coupling protocol. All measurements were performed using HBS-EP buffer (10 mM HEPES pH 7.4, 0.15 M NaCl, 3 mM EDTA, 0.005% vol/vol surfactant P20, Biacore). Antibodies at 20 nM or 50 nM in HBS-EP buffer were immobilized on the protein A/G surface and FcγRs were injected. After each cycle, the surface was regenerated by injecting glycine buffer (10 mM, pH 1.5). Data were processed by zeroing time and response before the injection of FcγR and by subtracting appropriate nonspecific signals (response of reference channel and injection of running buffer). Kinetic analyses were performed by global fitting of binding data with a 1:1 Langmuir binding model using BIAevaluation software (Biacore).
Background: SPR reads the build-up and loss of mass on a sensor chip optically.

Experiment [2] addresses T1, human FcγRIIb receptor protein (R&D …). The experiment can be described thus: SPR.
In experiment [3] the target is T2, human FcγRIIa (131H), His- and GST-tagged (human, UniProt P12318 34-217).
T2 construct: also called H131 FcγRIIa; HIIa; not shown: 6xHis and GST tags of the pTT5 vector
T2 sequence (looked up): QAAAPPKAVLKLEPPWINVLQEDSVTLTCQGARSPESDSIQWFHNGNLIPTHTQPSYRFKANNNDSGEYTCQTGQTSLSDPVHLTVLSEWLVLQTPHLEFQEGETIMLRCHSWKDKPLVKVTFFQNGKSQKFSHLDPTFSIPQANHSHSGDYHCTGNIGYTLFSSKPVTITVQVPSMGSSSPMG
Briefly: SPR.

Experiment [4] addresses T3, human FcγRIIIa (158F), His- and GST-tagged (human, UniProt P08637 17-208).
T3 construct: also called F158 FcγRIIIa; not shown: 6xHis and GST tags of the pTT5 vector
Briefly: SPR.

In experiment [5] the target is T4, human FcγRIIa (131R), His- and GST-tagged (human, UniProt P12318 34-217).
T4 construct: Expressed in HEK293T cells, purified by nickel chromatography; also called R131 FcγRIIa; not shown: 6xHis and GST tags of the pTT5 vector
T4 sequence (looked up): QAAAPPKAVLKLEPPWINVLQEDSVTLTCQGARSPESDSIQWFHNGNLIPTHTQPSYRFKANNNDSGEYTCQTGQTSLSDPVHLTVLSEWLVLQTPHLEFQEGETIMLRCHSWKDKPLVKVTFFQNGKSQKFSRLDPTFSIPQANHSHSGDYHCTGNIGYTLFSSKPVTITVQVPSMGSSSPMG
The experiment can be described thus: SPR.

In experiment [6] the target is T5, human FcγRIIIa (158V), His- and GST-tagged (human, UniProt P08637 17-208).
T5 construct: also called V158 FcγRIIIa; VIIIa; not shown: 6xHis and GST tags of the pTT5 vector
The experiment can be described thus: SPR.

In experiment [7] the target is T6, human FcγRI receptor protein (R&D Systems) (human, UniProt P12314 16-288).
T6 construct: also called soluble FcγRI; solFcγRI
Briefly: SPR.

A further experiment addresses T7, cynoFcγRIIIa (Macaca fascicularis, UniProt Q8SPW2).
T7 construct: extracellular region, C-terminal His- and GST-tag; also called cynomolgus monkey FcγRIIIa
The experiment can be described thus: SPR, Kd. An outline of the steps:
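Real-time SPR with antibodies captured on protein A/G and monkey FcγR ECDs injected as analyte; 1:1 Langmuir global fit of double-referenced data.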

A further experiment has as its target T8, mFcγRIIb (Mus musculus, UniProt P08101).
T8 construct: extracellular region, C-terminal His- and GST-tag; also called mouse FcγRII
T8 sequence (receptor extracellular region, looked up): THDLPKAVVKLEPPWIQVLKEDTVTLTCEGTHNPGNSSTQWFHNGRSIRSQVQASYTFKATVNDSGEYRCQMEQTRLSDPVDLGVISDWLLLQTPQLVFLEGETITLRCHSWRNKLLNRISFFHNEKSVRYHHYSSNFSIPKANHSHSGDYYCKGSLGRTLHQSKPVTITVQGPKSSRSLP
Briefly: SPR.

A further experiment deals with T9, cynoFcγRIIb (Macaca fascicularis, UniProt A0A140HDP4).
T9 construct: extracellular region, C-terminal His- and GST-tag; also called cynomolgus monkey FcγRIIb
T9 sequence (receptor extracellular region): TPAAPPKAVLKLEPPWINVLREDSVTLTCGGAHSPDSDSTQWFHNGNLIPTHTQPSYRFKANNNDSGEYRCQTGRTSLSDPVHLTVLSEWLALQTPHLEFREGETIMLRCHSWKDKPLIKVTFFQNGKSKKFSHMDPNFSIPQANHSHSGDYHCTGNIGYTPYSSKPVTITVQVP
Briefly: SPR.

The target of the next experiment is T10, mFcγRIV.
T10 construct: also called mouse FcγRIV; not shown: C-terminal His and GST tags (named only on our card)
T10 chain: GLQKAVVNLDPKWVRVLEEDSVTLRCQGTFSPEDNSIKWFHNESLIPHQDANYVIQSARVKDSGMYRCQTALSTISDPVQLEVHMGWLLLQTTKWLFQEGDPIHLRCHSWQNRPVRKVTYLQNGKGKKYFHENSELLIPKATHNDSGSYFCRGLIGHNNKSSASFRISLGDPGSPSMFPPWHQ
Briefly: SPR.

Experiment [8] concerns the target T11, human FcγRIIb on cells (transfected HEK293T cells; primary human B cells) (human, UniProt P31994 43-310).
T11 construct: whole, on cells; also called CD32b
T11 sequence (looked up): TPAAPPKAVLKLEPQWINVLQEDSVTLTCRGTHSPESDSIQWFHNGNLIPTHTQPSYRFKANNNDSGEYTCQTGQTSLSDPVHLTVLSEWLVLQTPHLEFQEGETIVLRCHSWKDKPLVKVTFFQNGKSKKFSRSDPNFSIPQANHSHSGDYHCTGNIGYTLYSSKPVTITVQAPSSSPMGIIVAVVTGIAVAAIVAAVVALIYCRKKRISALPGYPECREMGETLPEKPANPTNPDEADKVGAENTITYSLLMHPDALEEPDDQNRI
Briefly: flow cytometry on HEK293T cells transfected with human FcγRIIb, PE anti-human Fab detection. Here is the method: (§1) In order to validate the Biacore data and evaluate receptor binding of the variants on the cell surface, binding of select antibodies to cells expressing FcγRIIb was measured. […] HEK293T cells in DMEM with 10% FBS were transfected with human FcγRIIb cDNA in pCMV6 expression vector (Origene Technologies, Rockville, Md.), cultured for 3 days, harvested, washed twice in PBS, resuspended in PBS with 0.1% BSA (PBS/BSA), and aliquoted at 2×10^5 cells per well into 96-well microtiter plates. Fc variant antibodies were serially diluted in PBS/BSA then added to the cells and incubated with mixing for 1 h at room temperature. After extensive washing with PBS/BSA, phycoerythrin (PE)-labeled anti-human-Fab-specific goat F(ab′)2 fragment was added for detection. Cells were incubated for 30 min at room temperature, washed, and resuspended in PBS/BSA. Binding was evaluated using a FACSCanto II flow cytometer (BD Biosciences, San Jose, Calif.), and the mean fluorescence intensity (MFI) was plotted as a function of antibody concentration using Graph Pad Prism software (GraphPad Software, San Diego, Calif.) from which half-maximal binding (EC50) values were determined by sigmoidal dose response modeling.
In general terms: A flow cytometer gives signals particle by particle.

The target of experiment [9] is T11, human FcγRIIb on cells (transfected …). The experiment can be described thus: flow cytometry on FcγRIIb-transfected 293T cells [bottom left panel]. The method, then:
as §1
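Wherever Fold vs WT IgG1 (off-rate) is given: fold improvement over WT IgG1 so higher means slower dissociation than WT.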

T6 sequence (P12314 16-288 limits assumed): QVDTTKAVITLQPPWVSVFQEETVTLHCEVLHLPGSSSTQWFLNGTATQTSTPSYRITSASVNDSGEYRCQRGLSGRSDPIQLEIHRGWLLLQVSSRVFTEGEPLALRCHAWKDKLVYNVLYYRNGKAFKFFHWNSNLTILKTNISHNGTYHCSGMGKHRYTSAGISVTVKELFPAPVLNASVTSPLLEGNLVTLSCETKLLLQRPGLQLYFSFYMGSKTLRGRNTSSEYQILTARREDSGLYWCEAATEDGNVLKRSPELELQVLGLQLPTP
T5 sequence (P08637 17-208 F176V): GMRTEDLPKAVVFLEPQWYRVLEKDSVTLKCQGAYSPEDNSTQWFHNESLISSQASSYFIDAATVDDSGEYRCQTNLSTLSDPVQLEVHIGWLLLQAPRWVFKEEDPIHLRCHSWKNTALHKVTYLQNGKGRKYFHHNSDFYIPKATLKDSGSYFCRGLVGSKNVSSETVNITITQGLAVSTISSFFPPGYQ
T7 sequence (Q8SPW2 17-208): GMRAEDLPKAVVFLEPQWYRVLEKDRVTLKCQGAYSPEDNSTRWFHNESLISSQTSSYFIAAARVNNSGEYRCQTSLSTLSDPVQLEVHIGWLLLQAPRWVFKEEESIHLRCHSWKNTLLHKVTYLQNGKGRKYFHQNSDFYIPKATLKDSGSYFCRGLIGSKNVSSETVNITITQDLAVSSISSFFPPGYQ
T3 sequence (P08637 17-208): as the sequence (P08637 17-208 F176V) above, with V160F counted along it

B1: anti-CD19 antibody HuAM4G7, WT (native) IgG1 (antibody)
heavy: not shown
light: DIVMTQSPATLSLSPGERATLSCRSSKSLQNVNGNTYLYWFQQKPGQSPQLLIYRMSNLNSGVPDRFSGSGSGTEFTLTISSLEPEDFAVYYCMQHLEYPITFGAGTKLEIKRTVAAPSVFIFPPSDEQLKSGTASVVCLLNNFYPREAKVQWKVDNALQSGNSQESVTEQDSKDSTYSLSSTLTLSKADYEKHKVYACEVTHQGLSSPVTKSFNRGEC
notes: also called WT IgG1; anti-CD19-IgG1; copies: 2 + 2
As for B1, the Kd was determined as 1.47 µM in [1]; 0.646 µM in [3]; 0.859 µM in [5]; 0.191 µM in experiment [6]; 0.000329 µM in [7]. The “Fold vs WT IgG1” value in [2], in experiment [3], in experiment [4], in [5], in [6] and in [7] was 1 fold throughout.

B2: anti-CD19 antibody HuAM4G7 IgG1 S267E/L328F (antibody)
heavy: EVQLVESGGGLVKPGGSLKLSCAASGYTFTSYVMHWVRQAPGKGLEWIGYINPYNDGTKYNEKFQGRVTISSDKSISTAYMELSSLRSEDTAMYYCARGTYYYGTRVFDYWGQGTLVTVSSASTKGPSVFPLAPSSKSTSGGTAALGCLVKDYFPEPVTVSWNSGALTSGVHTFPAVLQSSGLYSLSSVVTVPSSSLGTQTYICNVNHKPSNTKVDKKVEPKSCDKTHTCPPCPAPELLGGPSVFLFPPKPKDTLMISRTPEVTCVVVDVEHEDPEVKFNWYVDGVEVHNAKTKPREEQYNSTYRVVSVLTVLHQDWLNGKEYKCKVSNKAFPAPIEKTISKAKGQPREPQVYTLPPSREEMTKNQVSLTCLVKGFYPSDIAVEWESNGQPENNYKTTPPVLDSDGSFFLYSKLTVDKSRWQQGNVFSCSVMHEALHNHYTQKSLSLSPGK
light: DIVMTQSPATLSLSPGERATLSCRSSKSLQNVNGNTYLYWFQQKPGQSPQLLIYRMSNLNSGVPDRFSGSGSGTEFTLTISSLEPEDFAVYYCMQHLEYPITFGAGTKLEIKRTVAAPSVFIFPPSDEQLKSGTASVVCLLNNFYPREAKVQWKVDNALQSGNSQESVTEQDSKDSTYSLSSTLTLSKADYEKHKVYACEVTHQGLSSPVTKSFNRGEC
notes: Positions in EU numbering; also called anti-CD19-S267E/L328F; α-CD19-S267E/L328F; copies: 2 + 2
On to B2, for which the binding result in the experiment with cynoFcγRIIIa is given as “no binding”. For the same molecule, the “Fold vs WT IgG1 (Kd)” value worked out at 1.06 fold with mFcγRIIb, 0.881 fold with cynoFcγRIIb and 0.02 fold with mFcγRIV. For the same molecule, the “Fold vs WT IgG1 (off-rate)” value with mFcγRIIb came to 4.89 fold; with cynoFcγRIIb, 1.26 fold; with mFcγRIV, 0.198 fold. Further, the “Fold vs WT IgG1” value came out at 242 fold in experiment [2]; 0.7 fold in [3]; 275 fold in experiment [5]; 0.038 fold in [6]; 1.5 fold in experiment [7]. Moreover, the Kd worked out at 0.00606 µM in experiment [2]; 0.923 µM in experiment [3]; 0.00312 µM in [5]; 5.04 µM in experiment [6]; 0.00022 µM in experiment [7]. Further, the “fold EC50 relative to WT IgG1” value in experiment [8] was approximately 320 fold.

B3: anti-CD19 antibody HuAM4G7 IgG1 L235Y/S267E (antibody)
heavy: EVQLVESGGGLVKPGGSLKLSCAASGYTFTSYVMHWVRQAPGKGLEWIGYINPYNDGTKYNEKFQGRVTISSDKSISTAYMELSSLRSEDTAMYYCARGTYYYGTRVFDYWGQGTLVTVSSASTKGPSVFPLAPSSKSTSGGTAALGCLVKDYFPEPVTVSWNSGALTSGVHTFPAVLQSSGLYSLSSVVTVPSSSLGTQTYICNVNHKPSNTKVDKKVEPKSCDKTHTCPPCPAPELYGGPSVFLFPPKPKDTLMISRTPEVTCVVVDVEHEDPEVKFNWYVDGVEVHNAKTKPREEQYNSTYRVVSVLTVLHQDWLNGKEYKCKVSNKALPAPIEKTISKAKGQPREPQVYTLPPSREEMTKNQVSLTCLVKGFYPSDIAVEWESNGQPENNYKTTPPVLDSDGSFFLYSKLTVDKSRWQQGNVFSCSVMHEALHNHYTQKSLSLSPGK
light: DIVMTQSPATLSLSPGERATLSCRSSKSLQNVNGNTYLYWFQQKPGQSPQLLIYRMSNLNSGVPDRFSGSGSGTEFTLTISSLEPEDFAVYYCMQHLEYPITFGAGTKLEIKRTVAAPSVFIFPPSDEQLKSGTASVVCLLNNFYPREAKVQWKVDNALQSGNSQESVTEQDSKDSTYSLSSTLTLSKADYEKHKVYACEVTHQGLSSPVTKSFNRGEC
notes: Positions in EU numbering; copies: 2 + 2
On to B3, for which the “Fold vs WT IgG1” value in [2] came out at 37.2 fold; in experiment [3], 0.941 fold; in experiment [5], 37.5 fold; in experiment [7], 0.00347 fold. Also, the Kd in experiment [2] was 0.0394 µM; in experiment [3], 0.687 µM; in experiment [5] it was 0.0229 µM; in experiment [7] it was 0.095 µM. Also, the binding result in experiment [6] is “no binding”. The “EC50 (read off the curve)” value in experiment [9] was approximately 6 ng/mL.

By Kd is commonly meant the equilibrium constant for the complex coming apart. A high value points to a looser complex. By EC50 (read off the curve) is commonly meant the concentration that produces a half-maximal response.

Values taken from US20130315910A1 (Xencor, published 2013).
